Source: article PMC12276362 (Nature Communications, 2025)

Target: rhAMPK protein (AMPKα2, Abiocenter Biotechnology) (human (printed only as the prefix rh), UniProt P54646 1-552)
Assay: BLI

rhAMPK protein (AMPKα2, Abiocenter Biotechnology), sequence (P54646 whole entry): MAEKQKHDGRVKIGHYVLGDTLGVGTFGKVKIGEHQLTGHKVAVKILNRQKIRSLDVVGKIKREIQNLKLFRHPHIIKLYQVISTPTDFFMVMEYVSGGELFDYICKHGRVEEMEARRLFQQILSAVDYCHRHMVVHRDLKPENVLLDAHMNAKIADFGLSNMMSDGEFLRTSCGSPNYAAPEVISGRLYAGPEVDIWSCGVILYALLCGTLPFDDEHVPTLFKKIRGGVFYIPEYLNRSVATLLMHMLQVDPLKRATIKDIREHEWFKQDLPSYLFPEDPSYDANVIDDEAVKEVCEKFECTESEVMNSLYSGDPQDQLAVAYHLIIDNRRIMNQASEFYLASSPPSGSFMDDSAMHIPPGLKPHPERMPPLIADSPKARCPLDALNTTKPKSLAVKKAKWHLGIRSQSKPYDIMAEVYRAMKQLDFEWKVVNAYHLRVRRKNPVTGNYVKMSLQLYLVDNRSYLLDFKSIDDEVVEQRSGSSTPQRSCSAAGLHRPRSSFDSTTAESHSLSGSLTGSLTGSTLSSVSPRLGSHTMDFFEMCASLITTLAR

B1: rhOTUD1 protein (enzyme, human (printed only as the prefix rh), UniProt Q5VV17 1-481, looked up)
chain: MQLYSSVCTHYPAGAPGPTAAAPAPPAAATPFKVSLQPPGAAGAAPEPETGECQPAAAAEHREAAAVPAAKMPAFSSCFEVVSGAAAPASAAAGPPGASCKPPLPPHYTSTAQITVRALGADRLLLHGPDPVPGAAGSAAAPRGRCLLLAPAPAAPVPPRRGSSAWLLEELLRPDCPEPAGLDATREGPDRNFRLSEHRQALAAAKHRGPAATPGSPDPGPGPWGEEHLAERGPRGWERGGDRCDAPGGDAARRPDPEAEAPPAGSIEAAPSSAAEPVIVSRSDPRDEKLALYLAEVEKQDKYLRQRNKYRFHIIPDGNCLYRAVSKTVYGDQSLHRELREQTVHYIADHLDHFSPLIEGDVGEFIIAAAQDGAWAGYPELLAMGQMLNVNIHLTTGGRLESPTVSTMIHYLGPEDSLRPSIWLSWLSNGHYDAVFDHSYPNPEYDNWCKQTQVQRKRDEELAKSMAISLSKMYIEQNACS
modifications: biotin (EZ-Link Sulfo-NHS-LC-Biotinylation Kit)
A Kd of 55.6 nM was found for B1 in this work.
